Measured values published in patent US9872893B2, “Endolysins active against Staphylococcus bacteria, pharmaceutical compositions, and methods relating thereto” (priority 2014, dated 2018).

Assays:
[1] = system: stationary phase S. aureus NRS-14; assay: turbidity reduction assay (lytic activity); format: cell-based, Staphylococcus aureus; details: equimolar concentrations; for lytic activity (in words): isolated domain
Description: Lytic activity was based on turbidity reduction assay (Nelson D C et al. (2012) Endolysins as antimicrobials. Adv Virus Res 83:299-365). Briefly, bacterial cells were centrifuged (4,000 RPM, 5 minutes, 4° C.), re-suspended in buffer and mixed 1:1 (v/v) with endolysin to a final OD600=1. OD600 readings were taken every 15 seconds for 20 minutes at 37° C. Endolysin activity was equated to the Vmax dictated by the linear portion of the resulting killing curve. Each experiment was performed in triplicate.
To determine dose response, PlyGRCS was serially diluted and each dosage (100 μl) was added in triplicate to a 96-well polystyrene microtiter plate (Nest Biotech Co, Ltd) just before addition of bacterial cells (100 μl) according to the turbidity reduction assay described above. For optimum pH determination, bacterial cells were suspended in 40 mM boric acid/phosphoric acid (BP) buffer, pH 3-11, and were challenged against PlyGRCS. The influence of NaCl on PlyGRCS activity was tested in BP buffer at the experimentally determined pH optimum using the same assay. The effect of divalent cations was determined using the turbidity reduction assay with several modifications. First, PlyGRCS was incubated at room temperature in PBS or PBS supplemented with 5 mM EDTA for 10 minutes. Second, the EDTA-treated samples received either no further treatment, or were supplemented with 6 mM CaCl2 or 6 mM MgCl2. Finally, the lytic active of the samples was then immediately assayed and compared to PlyGRCS in PBS prior to EDTA inactivation. Kinetic stability was evaluated (Son B et al. (2012) Characterization of LysB4, an endolysin from the Bacillus cereus-infecting bacteriophage B4. BMC Microbiol 12:33) with minor modifications. Lytic assays were performed in optimal conditions after PlyGRCS was incubated at indicated temperatures for 30 minutes and subsequently recovered on ice for 5 minutes.

[2] = circular dichroism melting experiments; format: physicochemical; details: 0.1 mg/ml, 20 mM sodium phosphate buffer pH 7, 20-95° C. at 1° C./min
Description: CD experiments for wild-type (WT) and active-site mutants were performed on a Chirascan CD spectrometer (Applied Photophysics) equipped with a thermoelectrically controlled cell holder. CD spectra were obtained in the far-UV range (190-260 nm) in a 1 mm path length quartz cuvette at 1 nm steps with 5 second signal averaging per data point. Spectra were collected in triplicate, followed by averaging, baseline subtraction, smoothing and conversion to mean residue ellipticity (MRE) by the Pro-Data software (Applied Photophysics). Secondary structure prediction was performed using the Provencher and Glockner method (Provencher S W & Glockner J (1981) Estimation of globular protein secondary structure from circular dichroism. Biochemistry 20(1):33-7) provided by DICHROWEB (Whitmore L & Wallace B A (2004) DICHROWEB, an online server for protein secondary structure analyses from circular dichroism spectroscopic data. Nucleic Acids Res 32:W668-73).
Melting experiments were performed by heating PlyGRCS at a 0.1 mg/ml concentration in 20 mM sodium phosphate buffer pH 7 from 20° C. to 95° C. using a 1° C./min heating rate. MRE was monitored at 218 nm in a 1 mm path length quartz cuvette at 0.5° C. steps with 5 second signal averaging per data point. The melting data was smoothed, normalized and fit with a Boltzmann sigmoidal curve. The first derivative of the melting curve was then taken to determine the temperature (Tm) at which the folded and unfolded protein species in solution were at equilibrium (Fallas J A & Hartgerink J D (2012) Computational design of self-assembling register-specific collagen heterotrimers. Nat Commun 3:1087).

[3] = system: S. aureus NRS-14; assay: cell wall binding by fluorescence microscopy; parameters: species or system Staphylococcus aureus; details: 10 μg, detected via anti-His antibody and AlexaFluor 488 secondary
Description: An overnight culture of S. aureus NRS-14 was concentrated 5× in BP buffer and was incubated at room temperature with 10 μg SH3_5GRCS containing the 6× His tag for 10 minutes. A control without SH3_5GRCS was also utilized. The samples were washed with PBS and incubated for 10 minutes at room temperature with 1 μl mouse anti-His antibody (Gen Script). After washing with PBS, AlexaFluor-488 conjugated goat anti-mouse IgG (H+L) antibody (1 μl) (Invitrogen) was incubated with samples for an additional 10 minutes. Samples were washed again with PBS before being visualized via fluorescence and bright field microscopy. An Eclipse 80i epifluorescent microscope workstation (Nikon) with X-Cite 120 illuminator (EXFO) and Retiga 2000R CCD camera was used. NIS-Elements software (Nikon) was used for image analysis.

[4] = system: Staphylococcus aureus, NRS-14; assay: plate lysis assay (spectrum of lytic activity); format: cell-based; parameters: key to strength of lytic zone: strong lytic zone = ++; weak lytic zone = +; no lytic zone = −; details: 6 μg; S. aureus NRS-14, VISA
Description: (§1) The PlyGRCS spectrum of lytic activity was performed (Schmelcher M et al. (2012) Chimeric phage lysins act synergistically with lysostaphin to kill mastitis-causing Staphylococcus aureus in murine mammary glands. Appl Environ Microbiol 78(7):2297-305) with minor modifications. Bacterial cells were diluted in sterile PBS to an OD600=1, and 100 μl was spread on each plate. 10 μl spots (600 μg/ml) of PlyGRCS or CHAPGRCS were applied. Plates were incubated overnight at 37° C. Strength of lytic zones was defined qualitatively.

[5] = system: Staphylococcus aureus, NRS-384; assay: plate lysis assay (spectrum of lytic activity); format: cell-based; parameters: key to strength of lytic zone: strong lytic zone = ++; weak lytic zone = +; no lytic zone = −; details: 6 μg
Description: as §1

[6] = system: Staphylococcus aureus, NRS-71; assay: plate lysis assay (spectrum of lytic activity); format: cell-based; parameters: key to strength of lytic zone: strong lytic zone = ++; weak lytic zone = +; no lytic zone = −; details: 6 μg
Description: as §1

[7] = system: Staphylococcus epidermidis, NRS-101; assay: plate lysis assay (spectrum of lytic activity); format: cell-based; parameters: key to strength of lytic zone: strong lytic zone = ++; weak lytic zone = +; no lytic zone = −; details: 6 μg
Description: as §1

[8] = system: Bacillus pumulis, BJ0055; assay: plate lysis assay (spectrum of lytic activity); format: cell-based; parameters: key: strong lytic zone = ++; weak lytic zone = +; no lytic zone = −; details: 6 μg
Description: as §1

[9] = system: Enterococcus facealis, EF24; assay: plate lysis assay (spectrum of lytic activity); format: cell-based; parameters: key: strong lytic zone = ++; weak lytic zone = +; no lytic zone = −; details: 6 μg
Description: as §1

[10] = system: Staphylococcus aureus, NRS-382; assay: plate lysis assay (spectrum of lytic activity); format: cell-based; parameters: key: strong lytic zone = ++; weak lytic zone = +; no lytic zone = −; details: 6 μg; S. aureus NRS-382, MRSA
Description: as §1

[11] = system: Staphylococcus aureus, NRS-385; assay: plate lysis assay (spectrum of lytic activity); format: cell-based; parameters: key: strong lytic zone = ++; weak lytic zone = +; no lytic zone = −; details: 6 μg; S. aureus NRS-385, MRSA
Description: as §1

[12] = system: Streptococcus equi, ATCC 9528; assay: plate lysis assay (spectrum of lytic activity); format: cell-based; parameters: key: strong lytic zone = ++; weak lytic zone = +; no lytic zone = −; details: 6 μg
Description: as §1

[13] = system: Streptococcus pneumoniae, ATCC BAA-334; assay: plate lysis assay (spectrum of lytic activity); format: cell-based; parameters: key: strong lytic zone = ++; weak lytic zone = +; no lytic zone = −; details: 6 μg
Description: as §1

[14] = system: Streptococcus pyogenes, D471; assay: plate lysis assay (spectrum of lytic activity); format: cell-based; parameters: key: strong lytic zone = ++; weak lytic zone = +; no lytic zone = −; details: 6 μg
Description: as §1

[15] = system: Streptococcus suis, 730082; assay: plate lysis assay (spectrum of lytic activity); format: cell-based; parameters: key: strong lytic zone = ++; weak lytic zone = +; no lytic zone = −; details: 6 μg
Description: as §1

[16] = system: Streptococcus uberis, ATCC 700407; assay: plate lysis assay (spectrum of lytic activity); format: cell-based; parameters: key: strong lytic zone = ++; weak lytic zone = +; no lytic zone = −; details: 6 μg
Description: as §1

B1: SH3_5GRCS: PlyGRCS cell wall binding SH3_5 domain, amino acids 150-250, SEQ ID NO: 7 (protein)
chain: NTFGNWKQNQYGTYYRNENATFTCGFLPIFARVGSPKLSEPNGYWFQPNGYTPYDEVCLSDGLVWIGYNWQGTRYYLPVRQWNGKTGNSYSIGLPWGVFS
modifications: Synthetically generated polypeptide (SH3_5GRCS (amino acids 150-250))
For B1, the “lytic activity (in words)” value [1] was “little to no lytic activity”, the “lytic activity (in words)” value ([1]; listed as SH3_5 binding domain) was “lacked activity” and the Tm [2] was 44.5 °C. The “binding to staphylococcal cell wall” value [3] was “possessed the ability to specifically bind staphylococci” and the “binding to staphylococcal cell wall” value ([3]; listed as SH3_5 binding domain) was “interact directly with the staphylococcal cell wall”.

B2: CHAPGRCS: PlyGRCS catalytic CHAP domain, amino acids 1-140, SEQ ID NO: 6 (protein)
chain: MKSQQQAKEWIYKHEGTGVDFDGAYGFQCMDLAVAYVYYITDGKVRMWGNAKDAINNDFKGLATVYENTPSFKPQLGDVAVYTNSQYGHIQCVISGNLDYYTCLEQNWLGGGFDGWEKATIRTHYYDGVTHFIRPKFSAS
modifications: Synthetically generated polypeptide (CHAPGRCS (amino acids 1-140))
With B2 the “strength of lytic zone” value [4] was “−”, the “lytic activity on plates (in words)” value ([5]; S. aureus NRS-384) was “relatively weak clearing zones” and the “strength of lytic zone” value ([5]; S. aureus NRS-384, MRSA) was “+”. The “lytic activity on plates (in words)” value ([6]; S. aureus NRS-71) was “relatively weak clearing zones”, the “strength of lytic zone” value ([6]; S. aureus NRS-71, MRSA) was “+” and the “lytic activity on plates (in words)” value ([7]; S. epidermidis NRS-101) was “relatively weak clearing zones”. The “strength of lytic zone” value ([7]; S. epidermidis NRS-101, MRSE) was “+”, the “strength of lytic zone” value [8] was “−” and the “strength of lytic zone” value [9] was “−”. For the same molecule, the “strength of lytic zone” value [10] was “−”, the “strength of lytic zone” value [11] was “−” and the “strength of lytic zone” value [12] was “−”. The “strength of lytic zone” value [13] was “−”, the “strength of lytic zone” value [14] was “−” and the “strength of lytic zone” value [15] was “−”. The “strength of lytic zone” value [16] was “−”, the “lytic activity relative to full-length PlyGRCS” value [1] was 8-10% and the “lytic activity relative to full-length PlyGRCS” value ([1]; listed as CHAP domain) was “about 10%”. The Tm [2] was 44.8 °C.
